US20210253718A1 (MODMAB THERAPEUTICS, published 2021)

Legend:
[1] = target: FZD7 cysteine-rich domain (CRD), MYC-tagged and GPI-anchored on CHO cells (human, UniProt O75084 45-169); test: flow cytometry, CHO-CRD cells;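 note: flow cytometry of Fab binding to CHO cells overexpressing a Frizzled CRD, with binding defined as median fluorescence over twice that of CHO cells lacking any Frizzled CRD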
[2] = target: FZD1 cysteine-rich domain (CRD), MYC-tagged and GPI-anchored on CHO cells (human); test: flow cytometry, CHO-CRD cells;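 note: flow cytometry of Fab binding to CHO cells overexpressing a Frizzled CRD, with binding defined as median fluorescence over twice that of CHO cells lacking any Frizzled CRD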
[3] = target: T1, FZD10 cysteine-rich domain (CRD), MYC-tagged and GPI-anchored on CHO cells (human, UniProt Q9ULW2 30-156, GPI anchor); test: flow cytometry, CHO-CRD cells;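 note: flow cytometry of Fab binding to CHO cells overexpressing a Frizzled CRD, with binding defined as median fluorescence over twice that of CHO cells lacking any Frizzled CRD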
T1 construct: also called FZD10 CRD; CHO-myc-FZDGPI; not shown: MYC tag and GPI anchor signal
T1 sequence: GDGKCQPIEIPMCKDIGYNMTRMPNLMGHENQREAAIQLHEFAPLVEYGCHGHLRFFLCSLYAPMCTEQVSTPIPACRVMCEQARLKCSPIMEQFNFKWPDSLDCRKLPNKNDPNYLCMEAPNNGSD

[4] = target: T2, FZD6 cysteine-rich domain (CRD), MYC-tagged and GPI-anchored on CHO cells (human, UniProt O60353 20-146, GPI anchor); test: flow cytometry, CHO-CRD cells;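 note: flow cytometry of Fab binding to CHO cells overexpressing a Frizzled CRD, with binding defined as median fluorescence over twice that of CHO cells lacking any Frizzled CRD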
T2 construct: also called FZD6 CRD; CHO-myc-FZDGPI; not shown: MYC tag and GPI anchor signal
T2 sequence: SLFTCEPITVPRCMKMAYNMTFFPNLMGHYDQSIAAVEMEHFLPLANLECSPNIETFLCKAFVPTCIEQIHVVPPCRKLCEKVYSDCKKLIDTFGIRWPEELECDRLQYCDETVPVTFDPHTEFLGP

[5] = target: T3, FZD3 cysteine-rich domain (CRD), MYC-tagged and GPI-anchored on CHO cells (human, UniProt Q9NPG1 24-150, GPI anchor); test: flow cytometry, CHO-CRD cells
T3 construct: domain: cysteine-rich domain (CRD); also called FZD3 CRD; CHO-myc-FZDGPI; not shown: MYC tag and GPI anchor signal
T3 sequence (looked up): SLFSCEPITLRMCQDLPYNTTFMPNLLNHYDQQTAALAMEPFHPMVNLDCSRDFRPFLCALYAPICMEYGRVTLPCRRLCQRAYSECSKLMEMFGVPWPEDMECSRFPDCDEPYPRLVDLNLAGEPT

[6] = target: T4, FZD9 cysteine-rich domain (CRD), MYC-tagged and GPI-anchored on CHO cells (human, UniProt O00144 35-161, GPI anchor); test: flow cytometry, CHO-CRD cells
T4 construct: also called FZD9 CRD; CHO-myc-FZDGPI; not shown: MYC tag and GPI anchor signal
T4 sequence: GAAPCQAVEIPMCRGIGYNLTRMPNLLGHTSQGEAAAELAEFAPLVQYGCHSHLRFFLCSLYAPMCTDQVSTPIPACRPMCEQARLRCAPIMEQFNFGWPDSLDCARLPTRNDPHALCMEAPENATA

[7] = target: T5, FZD4 cysteine-rich domain (CRD), MYC-tagged and GPI-anchored on CHO cells (human, UniProt Q9ULV1 42-167, GPI anchor); test: flow cytometry, CHO-CRD cells
T5 construct: also called FZD4 CRD; CHO-myc-FZDGPI; not shown: MYC tag and GPI anchor signal
T5 sequence: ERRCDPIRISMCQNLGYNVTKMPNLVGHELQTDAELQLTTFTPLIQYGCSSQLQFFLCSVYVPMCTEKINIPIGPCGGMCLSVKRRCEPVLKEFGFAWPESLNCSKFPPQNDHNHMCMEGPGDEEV

[8] = target: FZD2 cysteine-rich domain (CRD), MYC-tagged and GPI-anchored on CHO cells (human, UniProt Q14332 35-161); test: flow cytometry, CHO-CRD cells
[9] = target: T6, FZD5 cysteine-rich domain (CRD), MYC-tagged and GPI-anchored on CHO cells (human, UniProt Q13467 29-156, GPI anchor); test: flow cytometry, CHO-CRD cells
T6 construct: also called FZD5 CRD; CHO-myc-FZDGPI; not shown: MYC tag and GPI anchor signal
T6 sequence: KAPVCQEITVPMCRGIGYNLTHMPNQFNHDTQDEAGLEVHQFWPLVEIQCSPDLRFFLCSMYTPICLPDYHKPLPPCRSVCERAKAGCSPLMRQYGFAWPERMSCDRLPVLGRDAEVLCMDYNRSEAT

[10] = target: T7, FZD8 cysteine-rich domain (CRD), MYC-tagged and GPI-anchored on CHO cells (human, UniProt Q498S8 31-155 (rat entry), GPI anchor); test: flow cytometry, CHO-CRD cells
T7 construct: also called FZD8 CRD; CHO-myc-FZDGPI; not shown: MYC tag and GPI anchor signal
T7 sequence: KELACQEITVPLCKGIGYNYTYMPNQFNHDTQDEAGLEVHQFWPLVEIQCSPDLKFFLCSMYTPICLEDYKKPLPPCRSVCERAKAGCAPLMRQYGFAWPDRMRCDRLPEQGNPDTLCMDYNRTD

[11] = target: T1, FZD10 cysteine-rich domain (CRD), …; test: immunofluorescence, CHO-CRD cells
[12] = target: T2, FZD6 cysteine-rich domain (CRD), …; test: immunofluorescence, CHO-CRD cells
[13] = target: T3, FZD3 cysteine-rich domain (CRD), …; test: immunofluorescence, CHO-CRD cells
[14] = target: T4, FZD9 cysteine-rich domain (CRD), …; test: immunofluorescence, CHO-CRD cells
[15] = target: T5, FZD4 cysteine-rich domain (CRD), …; test: immunofluorescence, CHO-CRD cells
FZD8-Fc = target: T8, FZD8-Fc (UniProt Q9H461 28-158, limits assumed); test: SPR, Frizzled-Fc chimera;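 note: binding targets are Fc fusions carrying an extracellular Frizzled fragment that contains the CRD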
T8 construct: extracellular domain; also called Frizzled-Fc chimera (FZD8); not shown: Fc part
T8 sequence (looked up): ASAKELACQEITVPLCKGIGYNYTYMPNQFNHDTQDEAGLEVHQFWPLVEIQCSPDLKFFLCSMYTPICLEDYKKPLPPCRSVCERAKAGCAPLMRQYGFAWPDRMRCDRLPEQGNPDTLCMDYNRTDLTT

[16] = target: T9, recombinant human FZD5-Fc chimera (R&D Systems, Catalog no. 1617-FZ) (human, UniProt Q13467 27-167); test: SPR, Frizzled-Fc chimera;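 note: binding targets are Fc fusions carrying an extracellular Frizzled fragment that contains the CRD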
T9 construct: used for selection and ELISA; Fc part of the bought chimera not given
T9 sequence: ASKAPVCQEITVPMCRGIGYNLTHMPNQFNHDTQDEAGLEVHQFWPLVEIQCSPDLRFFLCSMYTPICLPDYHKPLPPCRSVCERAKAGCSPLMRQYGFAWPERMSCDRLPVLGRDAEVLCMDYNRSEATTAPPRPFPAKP

B1: Fab-2898 (Fab, V domains shown)
VH: EVQLVESGGGLVQPGGSLRLSCAASGFNIYSYSMHWVRQAPGKGLEWVASIYSSSGSTSYADSVKGRFTISADTSKNTAYLQMNSLRAEDTAVYYCARAVWGLDYWGQGTLVTVSS
VL: DIQMTQSPSSLSASVGDRVTITCRASQSVSSAVAWYQQKPGKAPKLLIYSASSLYSGVPSRFSGSRSGTDFTLTISSLQPEDFATYYCQQWWGYYSLITFGQGTKVEIK
notes: Fab; also called Fv-2898
- median fluorescence [1]: 36.9
- median fluorescence [2]: 14.9
- median fluorescence [3]: 4.26
- median fluorescence [4]: 4.49
- median fluorescence [5]: 5.05
- median fluorescence [6]: 4.57
- median fluorescence [7]: 6.26
- median fluorescence [8]: 13.5
- median fluorescence [9]: 32
- median fluorescence [10]: 12.7
- binding result [11]: no binding
- binding result [12]: no binding
- binding result [13]: no binding
- binding result [14]: no binding
- binding result [15]: no binding

B2: Fab-2916 (Fab, V domains shown)
VH: EVQLVESGGGLVQPGGSLRLSCAASGFNISYSSIHWVRQAPGKGLEWVASIYPSYSYTYYADSVKGRFTISADTSKNTAYLQMNSLRAEDTAVYYCARYGYYGMDYWGQGTLVTVSS
VL: DIQMTQSPSSLSASVGDRVTITCRASQSVSSAVAWYQQKPGKAPKLLIYSASSLYSGVPSRFSGSRSGTDFTLTISSLQPEDFATYYCQQWYHYPYLITFGQGTKVEIK
notes: Fab
- median fluorescence [1]: 36.2
- median fluorescence [2]: 34.3
- median fluorescence [3]: 2.94
- median fluorescence [4]: 3.49
- median fluorescence [5]: 4.53
- median fluorescence [6]: 3.52
- median fluorescence [7]: 6.1
- median fluorescence [8]: 18.9
- median fluorescence [9]: 24.1
- median fluorescence [10]: 7.37
- binding result [11]: no binding
- binding result [12]: no binding
- binding result [13]: no binding
- binding result [14]: no binding
- binding result [15]: no binding

B3: Fab-2913 (Fab, V domains shown)
VH: EVQLVESGGGLVQPGGSLRLSCAASGFNISYSSIHWVRQAPGKGLEWVASIYPYSSSTSYADSVKGRFTISADTSKNTAYLQMNSLRAEDTAVYYCARYGYYGLDYWGQGTLVTVSS
VL: DIQMTQSPSSLSASVGDRVTITCRASQSVSSAVAWYQQKPGKAPKLLIYSASSLYSGVPSRFSGSRSGTDFTLTISSLQPEDFATYYCQQWGVSHYLFTFGQGTKVEIK
notes: Fab; also called Fv-2913
- median fluorescence [1]: 34.9
- median fluorescence [2]: 17.5
- median fluorescence [3]: 3.75
- median fluorescence [4]: 3.82
- median fluorescence [5]: 4.61
- median fluorescence [6]: 3.79
- median fluorescence [7]: 5.57
- median fluorescence [8]: 14.1
- median fluorescence [9]: 27.1
- binding result [11]: no binding
- binding result [12]: no binding
- binding result [13]: no binding
- binding result [14]: no binding
- binding result [15]: no binding

B4: Fab-2927 (Fab, V domains shown)
VH: EVQLVESGGGLVQPGGSLRLSCAASGFNIYYSSMHWVRQAPGKGLEWVASIYPSYGYTSYADSVKGRFTISADTSKNTAYLQMNSLRAEDTAVYYCARYGYYGFDYWGQGTLVTVSS
VL: DIQMTQSPSSLSASVGDRVTITCRASQSVSSAVAWYQQKPGKAPKLLIYSASSLYSGVPSRFSGSRSGTDFTLTISSLQPEDFATYYCQQWGSHGYLITFGQGTKVEIK
notes: Fab; also called Fv-2927
- median fluorescence [1]: 16.7
- median fluorescence [2]: 18.7
- median fluorescence [3]: 3.31
- median fluorescence [4]: 3.05
- median fluorescence [5]: 4.45
- median fluorescence [6]: 3.85
- median fluorescence [7]: 5.94
- median fluorescence [8]: 17.9
- median fluorescence [9]: 28.3
- median fluorescence [10]: 10.3
- binding result [11]: no binding
- binding result [12]: no binding
- binding result [13]: no binding
- binding result [14]: no binding
- binding result [15]: no binding

B5: Fab-2914 (Fab, V domains shown)
VH: EVQLVESGGGLVQPGGSLRLSCAASGFNIYYSYMHWVRQAPGKGLEWVASIYPSSSSTSYADSVKGRFTISADTSKNTAYLQMNSLRAEDTAVYYCARGAMDYWGQGTLVTVSS
VL: DIQMTQSPSSLSASVGDRVTITCRASQSVSSAVAWYQQKPGKAPKLLIYSASSLYSGVPSRFSGSRSGTDFTLTISSLQPEDFATYYCQQWYYGSLITFGQGTKVEIK
notes: Fab; also called Fv-2914
- median fluorescence [1]: 18.4
- median fluorescence [2]: 40.3
- median fluorescence [3]: 3.72
- median fluorescence [4]: 3.59
- median fluorescence [5]: 4.61
- median fluorescence [6]: 3.82
- median fluorescence [7]: 5.52
- median fluorescence [8]: 18.9
- median fluorescence [9]: 31.9
- median fluorescence [10]: 8.9
- binding result [11]: no binding
- binding result [12]: no binding
- binding result [13]: no binding
- binding result [14]: no binding
- binding result [15]: no binding

B6: IgG-2921 (antibody, V domains shown)
VH: EVQLVESGGGLVQPGGSLRLSCAASGFNISYYYIHWVRQAPGKGLEWVASIYPSSGSTSYADSVKGRFTISADTSKNTAYLQMNSLRAEDTAVYYCARGAMDYWGQGTLVTVSS
VL: DIQMTQSPSSLSASVGDRVTITCRASQSVSSAVAWYQQKPGKAPKLLIYSASSLYSGVPSRFSGSRSGTDFTLTISSLQPEDFATYYCQQWYAGSLITFGQGTKVEIK
- Kd (FZD8-Fc): 0.0244 nM
- koff (FZD8-Fc): 2.71e-05 s⁻¹
- kon (FZD8-Fc): 1.11e+06 M⁻¹ s⁻¹
- Kd [16]: 0.106 nM
- koff [16]: 9.81e-05 s⁻¹
- kon [16]: 922000 M⁻¹ s⁻¹
